The chains are these.
B1: anti-PSMA mAb, deglycosylated (MTG samples) (antibody, human IgG4 S228P, kappa, F234A L235A, V domains shown)
VH: EVQLLESGGGLVQPGGSLRLSCAASGFTFKSDAMHWVRQAPGKGLEWVSEISGSGGYTNYADSVKGRFTISRDNSKNTLYLQMNSLRAEDTAVYYCARDSYDSSLYVGDYFDYWGQGTLVTVSS
VL: EIVLTQSPATLSLSPGERATLSCRASQSVSSYLAWYQQKPGQAPRLLIYDASNRATGIPARFSGSGSGTDFTLTISSLEPEDFAVYYCQQRSNWPLTFGQGTKVEIKR
modifications: deglycosylated with Rapid PNGase F (all N-glycans released)
notes: Human IgG4; also called anti-PSMA mAb (MTG) Deglycosylated
B2: anti-PSMA mAb-azide (random azide) (antibody, human IgG4 S228P, kappa, F234A L235A, V domains shown)
VH: EVQLLESGGGLVQPGGSLRLSCAASGFTFKSDAMHWVRQAPGKGLEWVSEISGSGGYTNYADSVKGRFTISRDNSKNTLYLQMNSLRAEDTAVYYCARDSYDSSLYVGDYFDYWGQGTLVTVSS
VL: EIVLTQSPATLSLSPGERATLSCRASQSVSSYLAWYQQKPGQAPRLLIYDASNRATGIPARFSGSGSGTDFTLTISSLEPEDFAVYYCQQRSNWPLTFGQGTKVEIKR
modifications: random conjugation of NHS-PEG4-azide to amines of the antibody, CAR 2.4
notes: Human IgG4; sites of modification random, not located; also called anti-PSMA mAb (random azide) mAb-azide
B3: anti-PSMA mAb-DFO (site specific MTG azide clicked with DFO-DBCO) (antibody, human IgG4 S228P, kappa, F234A L235A, V domains shown)
VH: EVQLLESGGGLVQPGGSLRLSCAASGFTFKSDAMHWVRQAPGKGLEWVSEISGSGGYTNYADSVKGRFTISRDNSKNTLYLQMNSLRAEDTAVYYCARDSYDSSLYVGDYFDYWGQGTLVTVSS
VL: EIVLTQSPATLSLSPGERATLSCRASQSVSSYLAWYQQKPGQAPRLLIYDASNRATGIPARFSGSGSGTDFTLTISSLEPEDFAVYYCQQRSNWPLTFGQGTKVEIKR
modifications: deglycosylated with PNGase F; 3-azido propylamine at Gln295 by microbial transglutaminase, clicked with unchelated DFO-DBCO; CAR 2
notes: Human IgG4; also called anti-PSMA mAb (MTG) mAb-DFO
B4: anti-PSMA mAb-azide (site specific glycan) (antibody, human IgG4 S228P, kappa, F234A L235A, V domains shown)
VH: EVQLLESGGGLVQPGGSLRLSCAASGFTFKSDAMHWVRQAPGKGLEWVSEISGSGGYTNYADSVKGRFTISRDNSKNTLYLQMNSLRAEDTAVYYCARDSYDSSLYVGDYFDYWGQGTLVTVSS
VL: EIVLTQSPATLSLSPGERATLSCRASQSVSSYLAWYQQKPGQAPRLLIYDASNRATGIPARFSGSGSGTDFTLTISSLEPEDFAVYYCQQRSNWPLTFGQGTKVEIKR
modifications: Fc glycan trimmed with GlycINATOR to the innermost GlcNAc, GalNAz azido sugar added with GalT; CAR exactly 2
notes: Human IgG4; also called anti-PSMA mAb (glycan) mAb-azide
B5: anti-PSMA mAb-azide (site specific MTG) (antibody, human IgG4 S228P, kappa, F234A L235A, V domains shown)
VH: EVQLLESGGGLVQPGGSLRLSCAASGFTFKSDAMHWVRQAPGKGLEWVSEISGSGGYTNYADSVKGRFTISRDNSKNTLYLQMNSLRAEDTAVYYCARDSYDSSLYVGDYFDYWGQGTLVTVSS
VL: EIVLTQSPATLSLSPGERATLSCRASQSVSSYLAWYQQKPGQAPRLLIYDASNRATGIPARFSGSGSGTDFTLTISSLEPEDFAVYYCQQRSNWPLTFGQGTKVEIKR
modifications: deglycosylated with PNGase F; 3-azido propylamine at Gln295 by microbial transglutaminase; CAR 2
notes: Human IgG4; also called anti-PSMA mAb (MTG) mAb-azide
B6: anti-PSMA mAb-DOTA (site specific MTG azide clicked with DOTA-GA-DBCO) (antibody, human IgG4 S228P, kappa, F234A L235A, V domains shown)
VH: EVQLLESGGGLVQPGGSLRLSCAASGFTFKSDAMHWVRQAPGKGLEWVSEISGSGGYTNYADSVKGRFTISRDNSKNTLYLQMNSLRAEDTAVYYCARDSYDSSLYVGDYFDYWGQGTLVTVSS
VL: EIVLTQSPATLSLSPGERATLSCRASQSVSSYLAWYQQKPGQAPRLLIYDASNRATGIPARFSGSGSGTDFTLTISSLEPEDFAVYYCQQRSNWPLTFGQGTKVEIKR
modifications: deglycosylated with PNGase F; 3-azido propylamine at Gln295 by microbial transglutaminase, clicked with unchelated DOTA-GA-DBCO; CAR 2
notes: Human IgG4; also called anti-PSMA mAb (MTG) mAb-DOTA
B7: anti-PSMA mAb-DOTA (random azide clicked with DOTA-GA-DBCO) (antibody, human IgG4 S228P, kappa, F234A L235A, V domains shown)
VH: EVQLLESGGGLVQPGGSLRLSCAASGFTFKSDAMHWVRQAPGKGLEWVSEISGSGGYTNYADSVKGRFTISRDNSKNTLYLQMNSLRAEDTAVYYCARDSYDSSLYVGDYFDYWGQGTLVTVSS
VL: EIVLTQSPATLSLSPGERATLSCRASQSVSSYLAWYQQKPGQAPRLLIYDASNRATGIPARFSGSGSGTDFTLTISSLEPEDFAVYYCQQRSNWPLTFGQGTKVEIKR
modifications: random NHS-PEG4-azide on amines, clicked with unchelated DOTA-GA-DBCO, CAR 2.4
notes: Human IgG4; also called anti-PSMA mAb (random azide) mAb-DOTA
B8: anti-PSMA mAb-DOTA (site specific glycan azide clicked with DOTA-GA-DBCO) (antibody, human IgG4 S228P, kappa, F234A L235A, V domains shown)
VH: EVQLLESGGGLVQPGGSLRLSCAASGFTFKSDAMHWVRQAPGKGLEWVSEISGSGGYTNYADSVKGRFTISRDNSKNTLYLQMNSLRAEDTAVYYCARDSYDSSLYVGDYFDYWGQGTLVTVSS
VL: EIVLTQSPATLSLSPGERATLSCRASQSVSSYLAWYQQKPGQAPRLLIYDASNRATGIPARFSGSGSGTDFTLTISSLEPEDFAVYYCQQRSNWPLTFGQGTKVEIKR
modifications: Fc glycan trimmed to the innermost GlcNAc, GalNAz azido sugar added, clicked with unchelated DOTA-GA-DBCO; CAR 2
notes: Human IgG4; also called anti-PSMA mAb (glycan) mAb-DOTA
B9: anti-PSMA mAb-DFO (random azide clicked with DFO-DBCO) (antibody, human IgG4 S228P, kappa, F234A L235A, V domains shown)
VH: EVQLLESGGGLVQPGGSLRLSCAASGFTFKSDAMHWVRQAPGKGLEWVSEISGSGGYTNYADSVKGRFTISRDNSKNTLYLQMNSLRAEDTAVYYCARDSYDSSLYVGDYFDYWGQGTLVTVSS
VL: EIVLTQSPATLSLSPGERATLSCRASQSVSSYLAWYQQKPGQAPRLLIYDASNRATGIPARFSGSGSGTDFTLTISSLEPEDFAVYYCQQRSNWPLTFGQGTKVEIKR
modifications: random NHS-PEG4-azide on amines, clicked with unchelated DFO-DBCO, CAR 2.4
notes: Human IgG4; also called anti-PSMA mAb (random azide) mAb-DFO
B10: anti-PSMA mAb PSMB127 (antibody, human IgG4 S228P, kappa, F234A L235A, V domains shown)
VH: EVQLLESGGGLVQPGGSLRLSCAASGFTFKSDAMHWVRQAPGKGLEWVSEISGSGGYTNYADSVKGRFTISRDNSKNTLYLQMNSLRAEDTAVYYCARDSYDSSLYVGDYFDYWGQGTLVTVSS
VL: EIVLTQSPATLSLSPGERATLSCRASQSVSSYLAWYQQKPGQAPRLLIYDASNRATGIPARFSGSGSGTDFTLTISSLEPEDFAVYYCQQRSNWPLTFGQGTKVEIKR
notes: Parental, unmodified human IgG4 antibody

The target in one assay is T1, human prostate-specific membrane antigen (PSMA) (human, UniProt Q04609 1-750).
T1 construct: whole, on cells; also called PSMA+ C4-2B cells
T1 sequence (Q04609 whole entry): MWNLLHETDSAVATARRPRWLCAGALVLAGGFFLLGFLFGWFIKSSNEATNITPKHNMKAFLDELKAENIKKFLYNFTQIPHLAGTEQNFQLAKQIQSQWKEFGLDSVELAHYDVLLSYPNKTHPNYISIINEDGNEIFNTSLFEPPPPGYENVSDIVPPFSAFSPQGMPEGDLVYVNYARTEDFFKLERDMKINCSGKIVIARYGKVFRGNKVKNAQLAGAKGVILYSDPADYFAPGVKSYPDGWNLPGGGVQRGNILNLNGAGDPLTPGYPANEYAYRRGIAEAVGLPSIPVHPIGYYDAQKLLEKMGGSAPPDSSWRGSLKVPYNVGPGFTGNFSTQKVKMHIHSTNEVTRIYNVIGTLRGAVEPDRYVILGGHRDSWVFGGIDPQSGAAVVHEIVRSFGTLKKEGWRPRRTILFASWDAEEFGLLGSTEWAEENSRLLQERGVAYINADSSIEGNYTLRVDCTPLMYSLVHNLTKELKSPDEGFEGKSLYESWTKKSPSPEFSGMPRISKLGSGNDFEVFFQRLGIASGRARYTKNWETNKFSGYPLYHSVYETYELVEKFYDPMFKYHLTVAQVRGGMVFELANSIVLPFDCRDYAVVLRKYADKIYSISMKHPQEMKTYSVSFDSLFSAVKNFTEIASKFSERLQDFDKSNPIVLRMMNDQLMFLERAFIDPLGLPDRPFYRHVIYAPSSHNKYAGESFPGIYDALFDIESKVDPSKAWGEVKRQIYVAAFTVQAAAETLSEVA
The experiment in a line: flow cytometry on C4-2B cells (PSMA+), AlexaFluor647 anti-human IgG secondary, MFI curve fit. As for the experimental part: (§1) Cell binding of azide-modified antibodies, DOTA-DBCO-azide modified antibodies, and DFO-DBCO-azide modified antibodies was compared to the parental mAbs for the conjugates described in Table 1. Cell lines expressing the mAb target were treated with antibody or conjugate in a range of a concentrations, and binding was measured by flow cytometry. […] Anti-PSMA mAb was evaluated for binding to PSMA+C4-2b cells.
(§2) Flow Cytometry: Cells were detached from flask using enzyme free cell dissociation buffer (Gibco, Waltham, MA) and strained through a 40 μm filter (Falcon). 5×10⁴ cells were seeded per well in a 96-well u-bottom plate. Cells were incubated with conjugated antibody or parental antibody diluted in BSA stain buffer (BD Bioscience, San Jose, CA) for 1 hr at 4° C. Cells were washed twice with stain buffer. Cells were then incubated in the dark for 30 min at 4° C. with AlexaFluor647 tagged anti-human IgG secondary antibody (Jackson ImmunoResearch Laboratories). Secondary antibodies were diluted 1:200 in stain buffer containing 3% donkey serum (Rockland Immunochemicals). For the last 10 minutes of the incubation SYTOX® Green Nucleic Acid Stain (ThermoFisher) was added to cells at a final concentration of 30 nM. Cells were washed twice with stain buffer then resuspended in a final volume of 25 μL/well in stain buffer and read on the iQue® Screener flow cytometer (Intellicyt®). ForeCyt® software was used to analyze data. Live cells were determined by excluding events with high nucleic acid stain. Mean fluorescence intensity (MFI) was determined on live cells and graphed in GraphPad® Prism 7 (GraphPad® Software) as log of antibody concentration vs. MFI. A non-linear regression curve fit was added to data and EC₅₀ values were calculated.
Molecule B1 yielded a concentration giving a half-maximal response (EC50) of 3.4 nM.

B2: the response was half-maximal at 4.7 nM (EC50).

B3 gave an EC50 of 4.5 nM.

Molecule B4 showed an EC50 of 0.5 nM. In turn, B5 came in with an EC50 of 5 nM. Consider B6, for which the response was half-maximal at 6.7 nM (EC50). For the molecule B7, the EC50 stood at 5.4 nM. Molecule B8 displayed an EC50 of 0.7 nM.

As for B9, the EC50 is 4.6 nM.

The next assay concerns the target T1, human prostate-specific membrane …. The experiment in a line: flow cytometry on C4-2B cells (PSMA+), AlexaFluor647 anti-human IgG secondary, MFI curve fit; parental in the glycan series. As to the method:
as §1
as §2, with “Cells were then incubated in the dark for 30 min at 4° C. with AlexaFluor647 tagged anti-human IgG secondary antibody (Jackson ImmunoResearch Laboratories). Secondary antibodies were diluted 1:200 in stain buffer containing 3% donkey serum (Rockland Immunochemicals). For the last 10 minutes of the incubation SYTOX® Green Nucleic Acid Stain (ThermoFisher) was added to cells at a final concentration of 30 nM.” left out, “ForeCyt® software was used to analyze data.” left out
B10: the concentration giving a half-maximal response (EC50) turned out to be 0.7 nM.

The target is the same in the next assay. The assay can be described thus: flow cytometry on C4-2B cells (PSMA+), AlexaFluor647 anti-human IgG secondary, MFI curve fit; parental in the MTG series. As to the method: as §1
as §2, with “Cells were then incubated in the dark for 30 min at 4° C. with AlexaFluor647 tagged anti-human IgG secondary antibody (Jackson ImmunoResearch Laboratories). Secondary antibodies were diluted 1:200 in stain buffer containing 3% donkey serum (Rockland Immunochemicals). For the last 10 minutes of the incubation SYTOX® Green Nucleic Acid Stain (ThermoFisher) was added to cells at a final concentration of 30 nM.” left out, “ForeCyt® software was used to analyze data.” left out
For the molecule B10, the 50% effective concentration (EC50) came out at 4.1 nM.

For another assay the target is unchanged. The experiment in a line: flow cytometry on C4-2B cells (PSMA+), AlexaFluor647 anti-human IgG secondary, MFI curve fit; parental in the random azide series. As for the experimental part: as §1
as §2, with “Cells were then incubated in the dark for 30 min at 4° C. with AlexaFluor647 tagged anti-human IgG secondary antibody (Jackson ImmunoResearch Laboratories). Secondary antibodies were diluted 1:200 in stain buffer containing 3% donkey serum (Rockland Immunochemicals). For the last 10 minutes of the incubation SYTOX® Green Nucleic Acid Stain (ThermoFisher) was added to cells at a final concentration of 30 nM.” left out, “ForeCyt® software was used to analyze data.” left out
As to B10, the EC50 turned out to be 5.5 nM.

Source of the values: patent publication US20250171379A1 (Janssen / Centocor, published 2025).
